{
  "source": "patent US7399847",
  "about": "(GENERAL HOSPITAL, dated 2008)",
  "binders": {"B1": {"name": "PSGL-1 residues 38-57 (wildtype) appended to the CD43 mucin core (ligand, not shown: small tags and cut ends)", "chain": "RDRRQATEYEYLDYDFLPETITTNSPETSSRTSGAPVTTAASSLETSRGTSGPPLTMATVSLETSKGTSGPPVTMATDSLETSTGTTGPPVTMTTGSLEPSSGASGPQVSS", "modifications": "as the filing concludes: sulfated tyrosines at 46, 48 and 51; sLe^x on threonines 44 and 57", "notes": "Cotransfected with FTVII"}, "B2": {"name": "PSGL-1 residues 38-57 with tyrosines converted to phenylalanine, on the CD43 repeat elements and transmembrane domain (ligand, not shown: small tags and cut ends)", "chain": "B1 chain with Y9F, Y11F, Y14F"}, "B3": {"name": "PSGL-1 residues 38-57 with threonines converted to alanines, on the CD43 repeat elements and transmembrane domain (ligand, not shown: small tags and cut ends)", "chain": "B1 chain with T7A, T20A"}, "B4": {"name": "Factor VIII-CD43 synthetic P-selectin ligand (designed binder)", "chain": "TGDYYEDSYEDISITTNSPETSSRTSGAPVTTAASSLETSRGTSGPPLTMATVSLETSKGTSGPPVTMATDSLETSTGTTGPPVTMTTGSLEPSSGASGPQVSS", "modifications": "tyrosine sulfation site of Factor VIII; sLe^x (FTVIIh cotransfected)", "notes": "also called CD43-F8; not shown: flu hemagglutinin oligopeptide tag"}, "B5": {"name": "P-selectin:immunoglobulin fusion protein (Fc fusion, UniProt P16109 42-321, looked up)", "chain": "WTYHYSTKAYSWNISRKYCQNRYTDLVAIQNKNEIDYLNKVLPYYSSYYWIGIRKNNKTWTWVGTKKALTNEAENWADNEPNNKRNNEDCVEIYIKSPSAPGKWNDEHCLKKKHALCYTASCQDMSCSKQGECLETIGNYTCSCYPGFYGPECEYVRECGELELPQHVLMNCSHPLGNFSFNSQCSFHCTDGYQVNGPSKLECLASGIWTNKPPQCLAAQCPPLKIPERGNMTCLHSAKAFQHQSSCSFSCEEGFALVGPEVVQCTASGVWTAPAPVCKA", "notes": "domain: lectin, EGF-related, and first two short consensus repeat related domains; Made in COS cells; captured from supernatant on wells coated with goat anti-human IgG Fc; also called soluble P-selectin; P-selectin Ig chimera; not shown: hinge, CH2, and CH3 domains of human IgG1"}, "B6": {"name": "PSGL-1-NH2/CD43 rep. (ligand, not shown: small tags and cut ends)", "chain": "LQLWDTWADEAEKALGPLLARDRRQATEYEYLDYDFLPETEPPEMLRNSTDTTPLTGPGTPESTTVEPAARRSTGLDAGGAVTELTTELANMGNLSTDSAEFITTNSPETSSRTSGAPVTTAASSLETSRGTSGPPLTMATVSLETSKGTSGPPVTMATDSLETSTGTTGPPVTMTTGSLEPSSGASGPQVSS", "notes": "range mature amino terminus-117; Cotransfected with FTVIIh; also called PSGL-1-NH2/CD43 repeats; PSGL-1 apical domain on the CD43 repeat region"}},
  "key": {"[1]": {"molecular_target": "B5", "experiment": "adhesion of 51Cr-labelled transfected COS cells to immobilized P-selectin:Ig", "method": "(§1) To assess the importance of these residues, the tyrosines were converted to phenylalanine (FIG. 9A). In a second peptide, the threonines were converted to alanines. In addition, a third peptide, containing a quintuple mutation, was prepared such that both conversions were made in a single peptide. […] Cells expressing the resulting chimeras were tested for their ability to bind to immobilized P-selectin (FIG. 9A). […] Expression of the flu tag or sLe^x epitope was not affected in these cells."}, "[2]": {"molecular_target": "B5", "experiment": "static binding assay, transfected COS cells (with FTVIIh) on plastic coated with P-selectin Ig", "method": "The cells were then loaded with 100 µl ^51CrO_4 (1 mCi/ml; DuPont, Boston, Mass.) in 0.9% NaCl plus 100 ml medium by incubating them at 37° C. for 1 hour. Loaded cells were washed twice in PBS and resuspended in 0.2% BSA, 0.15 M NaCl, 3 mM CaCl_2. Variation in labeling rate (counts incorporated per cell) between cells prepared in parallel with the same batch of labeled chromate was typically minimal. […] After the plate was washed twice with PBS, additional protein-binding sites were blocked by an overnight incubation with 200 µl 3% BSA in PBS. The plate was washed with PBS four times and incubated with 200 µl of fusion protein supernatants for 2 hours. Following three PBS washes and one additional wash (in 0.2% BSA, 0.15 M NaCl, 3 mM CaCl_2), 2×10^5 cells/well (in 200 µl 0.2% BSA, 0.15 M NaCl, 3 mM CaCl_2) were added and allowed to bind for 15 minutes at room temperature while the plate rotated on a rotary platform (80 rpm). The plate was washed three times by filling the wells with 200 µl 0.15 M NaCl/3 mM CaCl_2 and then inverting the plate. Adherent cells were lysed by the addition of 200 µl 2% SDS, and labeled chromate was counted with a gamma ray spectrometer."}, "[3]": {"molecular_target": "T1, PSGL-1 deletion mutant lacking the amino terminal 100 residues (apical domain) (UniProt Q14242 118-412)", "T1 construct": "range 118-end (end not numbered), on cells; Cotransfected with FTVII; also called Xba1 (label inferred from the order of the endpoints)", "T1 sequence": "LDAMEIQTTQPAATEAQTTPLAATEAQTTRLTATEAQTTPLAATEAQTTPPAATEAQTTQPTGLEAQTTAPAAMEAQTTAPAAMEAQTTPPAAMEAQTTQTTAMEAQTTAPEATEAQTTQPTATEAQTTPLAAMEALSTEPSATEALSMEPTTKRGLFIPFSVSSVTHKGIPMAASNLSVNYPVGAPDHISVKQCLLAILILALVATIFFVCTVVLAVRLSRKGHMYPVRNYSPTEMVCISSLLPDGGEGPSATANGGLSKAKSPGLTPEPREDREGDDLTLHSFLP", "experiment": "adhesion of 51Cr-labelled transfected COS cells to immobilized P-selectin:Ig", "method": "as §1"}, "[4]": {"molecular_target": "T2, PSGL-1 amino-terminal deletion beginning at precursor R38 (UniProt Q14242 38-412)", "T2 construct": "range 38-end (end not numbered), on cells; also called removal of the first 20 amino acids of the N-terminus of the mature PSGL-1", "T2 sequence": "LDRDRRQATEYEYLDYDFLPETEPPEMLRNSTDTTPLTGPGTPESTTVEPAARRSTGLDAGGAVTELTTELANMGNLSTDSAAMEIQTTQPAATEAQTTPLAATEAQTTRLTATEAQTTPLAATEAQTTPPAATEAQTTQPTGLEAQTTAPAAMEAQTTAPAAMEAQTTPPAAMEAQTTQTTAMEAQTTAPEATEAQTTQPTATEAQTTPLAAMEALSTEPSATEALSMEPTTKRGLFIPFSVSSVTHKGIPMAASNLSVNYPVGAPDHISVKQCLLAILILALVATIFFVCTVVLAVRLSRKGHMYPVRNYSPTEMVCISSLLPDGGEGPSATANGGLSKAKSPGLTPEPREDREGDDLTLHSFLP", "experiment": "adhesion of 51Cr-labelled transfected COS cells to immobilized P-selectin:Ig", "method": "as §1"}, "[5]": {"molecular_target": "T3, PSGL-1 amino-terminal deletion beginning at precursor E58 (UniProt Q14242 58-412)", "T3 construct": "range 58-end (end not numbered), on cells; also called removal of the first 40 amino acids of the N-terminus", "T3 sequence": "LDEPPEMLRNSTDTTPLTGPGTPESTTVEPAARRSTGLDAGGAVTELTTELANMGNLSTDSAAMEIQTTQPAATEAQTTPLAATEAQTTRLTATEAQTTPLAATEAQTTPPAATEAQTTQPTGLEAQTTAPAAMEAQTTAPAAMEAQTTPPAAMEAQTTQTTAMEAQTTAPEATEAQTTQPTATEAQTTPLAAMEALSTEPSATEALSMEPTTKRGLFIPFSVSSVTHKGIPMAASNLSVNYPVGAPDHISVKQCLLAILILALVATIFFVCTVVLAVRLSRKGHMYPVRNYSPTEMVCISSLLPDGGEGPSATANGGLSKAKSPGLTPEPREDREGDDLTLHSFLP", "experiment": "adhesion of 51Cr-labelled transfected COS cells to immobilized P-selectin:Ig", "method": "as §1"}, "[6]": {"molecular_target": "T4, PSGL-1 residues 38-57 with tyrosines converted to phenylalanine, on the truncated PSGL-1 lacking the apical … (UniProt Q14242 118-412)", "T4 construct": "domain: truncated PSGL-1 lacking the apical domain, on cells", "T4 sequence": "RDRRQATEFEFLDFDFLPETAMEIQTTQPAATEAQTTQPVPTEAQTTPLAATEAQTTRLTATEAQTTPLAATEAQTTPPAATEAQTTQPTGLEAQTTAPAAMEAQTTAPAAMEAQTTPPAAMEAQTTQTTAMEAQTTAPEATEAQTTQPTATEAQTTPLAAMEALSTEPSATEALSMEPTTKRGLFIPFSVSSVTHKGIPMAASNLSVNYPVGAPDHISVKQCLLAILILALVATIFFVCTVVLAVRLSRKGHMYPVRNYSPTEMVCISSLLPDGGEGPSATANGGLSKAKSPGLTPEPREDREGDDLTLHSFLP", "experiment": "adhesion of 51Cr-labelled transfected COS cells to immobilized P-selectin:Ig", "method": "as §1"}, "[7]": {"molecular_target": "T5, PSGL-1 amino-terminal deletion beginning at precursor A98 (UniProt Q14242 98-412)", "T5 construct": "range 98-end (end not numbered), on cells; also called further deletion of PSGL", "T5 sequence": "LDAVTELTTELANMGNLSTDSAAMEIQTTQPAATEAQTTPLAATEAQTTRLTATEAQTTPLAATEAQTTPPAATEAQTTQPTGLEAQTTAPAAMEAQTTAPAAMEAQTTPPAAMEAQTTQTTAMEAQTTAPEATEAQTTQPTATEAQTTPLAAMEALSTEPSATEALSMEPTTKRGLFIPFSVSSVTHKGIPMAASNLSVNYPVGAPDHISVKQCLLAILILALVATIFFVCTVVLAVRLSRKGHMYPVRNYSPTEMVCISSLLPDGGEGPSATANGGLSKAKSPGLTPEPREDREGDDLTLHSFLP", "experiment": "adhesion of 51Cr-labelled transfected COS cells to immobilized P-selectin:Ig", "method": "as §1"}, "[8]": {"molecular_target": "T6, PSGL-1 amino-terminal deletion beginning at precursor P78 (UniProt Q14242 78-412)", "T6 construct": "range 78-end (end not numbered), on cells; also called further deletion of PSGL", "T6 sequence": "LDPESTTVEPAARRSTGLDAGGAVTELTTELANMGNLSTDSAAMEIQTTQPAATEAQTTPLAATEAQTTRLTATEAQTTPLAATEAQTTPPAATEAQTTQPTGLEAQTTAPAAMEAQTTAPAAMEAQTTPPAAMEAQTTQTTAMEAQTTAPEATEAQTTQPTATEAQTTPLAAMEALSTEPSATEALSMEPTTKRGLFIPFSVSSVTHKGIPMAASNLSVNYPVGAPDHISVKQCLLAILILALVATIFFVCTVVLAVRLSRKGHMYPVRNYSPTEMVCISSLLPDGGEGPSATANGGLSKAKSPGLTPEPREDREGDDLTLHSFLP", "experiment": "adhesion of 51Cr-labelled transfected COS cells to immobilized P-selectin:Ig", "method": "as §1"}},
  "note": "Changes are numbered by the printed parent chain.",
  "data": [
    {"binder": "B1", "values": [
      {"measurement": "binding result", "setting": "[1]", "result": "binds"}
    ]},
    {"binder": "B2", "values": [
      {"measurement": "binding result", "setting": "[1]", "result": "no binding"}
    ]},
    {"binder": "B3", "values": [
      {"measurement": "binding result", "setting": "[1]", "result": "binds"}
    ]},
    {"binder": "B4", "values": [
      {"measurement": "binding result", "setting": "[2]", "result": "binds"}
    ]},
    {"binder": "B5", "values": [
      {"measurement": "binding result", "setting": "[3]", "result": "no binding"},
      {"measurement": "binding result", "setting": "[4]", "result": "binds"},
      {"measurement": "binding result", "setting": "[5]", "result": "no binding"},
      {"measurement": "binding result", "setting": "[6]", "result": "no binding"},
      {"measurement": "binding result", "setting": "[7]", "result": "no binding"},
      {"measurement": "binding result", "setting": "[8]", "result": "no binding"}
    ]},
    {"binder": "B6", "values": [
      {"measurement": "binding result", "setting": "[1]", "result": "binds"}
    ]}
  ]
}
